Experiment [1] has as its target soluble single-chain FcRn (human) (UniProt P55899). The experiment is described as follows: SPR (BIACORE X), scFcRn amine-coupled to CM5 chip, antibody as analyte 25-400 nM, pH 6.0, two-state reaction model, Run 2. (SPR reads the build-up and loss of mass on a sensor chip optically.)
The target is the same in experiment [2]. The experiment is described as follows: SPR (BIACORE X), scFcRn amine-coupled to CM5 chip, antibody as analyte 25-400 nM, pH 6.0, two-state reaction model, Run 1.
For experiment [3] the target is unchanged. The experiment is described as follows: SPR (BIACORE X), scFcRn amine-coupled to CM5 chip, pH 6.0, two-state reaction model, mean of three runs.
Experiment [4] shares this target. The experiment is described as follows: SPR (BIACORE X), scFcRn amine-coupled to CM5 chip, antibody as analyte 25-400 nM, pH 6.0, two-state reaction model, Run 3.

soluble single-chain FcRn (human), sequence (P55899 24-297 limits assumed, chain 1 of 2): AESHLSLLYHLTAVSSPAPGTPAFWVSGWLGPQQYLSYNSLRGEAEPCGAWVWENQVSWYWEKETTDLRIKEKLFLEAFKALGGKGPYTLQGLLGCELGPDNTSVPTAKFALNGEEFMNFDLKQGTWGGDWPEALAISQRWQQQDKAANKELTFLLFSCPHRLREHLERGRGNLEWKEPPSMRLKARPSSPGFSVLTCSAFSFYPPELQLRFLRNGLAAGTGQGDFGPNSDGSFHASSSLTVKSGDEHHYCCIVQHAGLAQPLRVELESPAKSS
soluble single-chain FcRn (human), sequence (P61769 21-119 limits assumed, chain 2 of 2, further chain): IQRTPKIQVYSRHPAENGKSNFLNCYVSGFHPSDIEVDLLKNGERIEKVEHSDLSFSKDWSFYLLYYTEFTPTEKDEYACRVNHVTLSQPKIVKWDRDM

Broadly, the Kd is the free concentration of one partner at which half of the binding sites on the other are occupied at equilibrium, for simple one-to-one binding. For epratuzumab (antibody), the dissociation constant (Kd) in experiment [1] came to 17.9 nM; in experiment [2] it was 15 nM; in experiment [3] it was 16.3 nM; in experiment [4], 15.8 nM.

(Values after patent publication US20160340443A1.)
